Measured values: patent US20040131612A1 (APPLIED MOLECULAR EVOLUTION, published 2004)
Values joined by “and” are separate entries in the source; they are usually repeats but may differ in a detail not shown here. Equal values may be shown once.

Experiments:
human TNF-α [1] = molecular target: T1, human TNF-α (human, UniProt P01375 77-233); assay: cell-based or functional assay
human TNF-α [2] = molecular target: T1, human TNF-α; assay: calculated from Kd = koff/kon (KinExA data)
Description: Next, binding kinetics of three of the Fab fragments described in Table 4 were determined in a kinetic exclusion assay. Affinity measurements were performed on a KinExA™3000 instrument (Sapidyne Instruments, Inc., Boise, Id.) using Fab fragments (A10K, A9K, and A10P) released from the periplasmic space whose concentration was determined by a quantitative ELISA. Briefly, antigen and antibody fragment were allowed to react in solution and the fraction of unbound reagent was determined by capture and measured on a bead support. Binding kinetics can be determined or calculated from the amount of unbound reagent. For instance, after interaction between TNF-α and a Fab fragment has occurred in solution, binding of the unreacted, free Fab fragment to TNF-α coated beads can be measured on the instrument by detection with a labeled secondary antibody to the Fab fragment (e.g., a goat anti-IgG (heavy and light)). […] After the incubation, the amount of unbound Fab in the equilibrated samples was determined on the KinExA™3000 instrument according to the manufacturer's instructions. Kd values were determined by the instrument software.
To measure kₒₙ, individual Fab fragments at a concentration of 40 pM were mixed with 400 pM of hTNF-α. […] The resulting data was used to calculate the kₒₙ with the instrument software. koff was calculated by using the formula Kd=koff/kₒₙ.

human TNF-α [3] = molecular target: T1, human TNF-α; assay: kinetic exclusion assay (KinExA 3000), 40 pM Fab mixed with 400 pM hTNF-α, time course
Description: To measure kₒₙ, individual Fab fragments at a concentration of 40 pM were mixed with 400 pM of hTNF-α. A series of measurements were taken over a time course. The resulting data was used to calculate the kₒₙ with the instrument software. koff was calculated by using the formula Kd=koff/kₒₙ.

human TNF-α [4] = molecular target: T1, human TNF-α; assay: kinetic exclusion assay (KinExA 3000), Fab in solution with human TNF-α; lower end of the range
Description: (§1) Next, binding kinetics of three of the Fab fragments described in Table 4 were determined in a kinetic exclusion assay. Affinity measurements were performed on a KinExA™3000 instrument (Sapidyne Instruments, Inc., Boise, Id.) using Fab fragments (A10K, A9K, and A10P) released from the periplasmic space whose concentration was determined by a quantitative ELISA. Briefly, antigen and antibody fragment were allowed to react in solution and the fraction of unbound reagent was determined by capture and measured on a bead support. Binding kinetics can be determined or calculated from the amount of unbound reagent. For instance, after interaction between TNF-α and a Fab fragment has occurred in solution, binding of the unreacted, free Fab fragment to TNF-α coated beads can be measured on the instrument by detection with a labeled secondary antibody to the Fab fragment (e.g., a goat anti-IgG (heavy and light)). […] A total of 13 tubes were used for each Kd determination. For A10K and A10P, the Fab concentration was 10 pM with the human TNF-α concentration beginning at 160 pM and then serially diluted to 0.078 pM with the final tube containing no human TNF-α. […] After the incubation, the amount of unbound Fab in the equilibrated samples was determined on the KinExA™3000 instrument according to the manufacturer's instructions. Kd values were determined by the instrument software.

human TNF-α [5] = molecular target: T1, human TNF-α; assay: kinetic exclusion assay (KinExA 3000), Fab in solution with human TNF-α; upper end of the range
Description: as §1

T1 sequence (P01375 77-233 limits assumed): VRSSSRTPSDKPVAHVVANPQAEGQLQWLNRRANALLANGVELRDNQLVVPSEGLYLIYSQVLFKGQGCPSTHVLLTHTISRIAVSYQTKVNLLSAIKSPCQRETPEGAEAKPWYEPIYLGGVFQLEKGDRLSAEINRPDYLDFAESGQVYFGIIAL

L929 cell protection assay, EC50 (human TNF-α [1]) | koff (human TNF-α [2]) | kon (human TNF-α [3]) | Kd (human TNF-α [4]) | Kd (human TNF-α [5]) | Binder | L929 cell protection assay (prevention of TNF-α-mediated cell death), EC50 (human TNF-α [1])
~0.067 nM | 1.96e-05 s⁻¹ and 3.76e-05 s⁻¹ | 3.92e+06 M⁻¹ s⁻¹ and 7.51e+06 M⁻¹ s⁻¹ | ≥ 0.0035 nM | ≤ 0.0072 nM | A10K Fab fragment (Fab, V domains shown, Fab released from the E. coli periplasm; Against hu1: light chain S31Y, M55R) VH: EVQLVESGGGLVQPGGSLRLSCAASGFKFSNHWMNWVRQAPGKGLEWVGEIRSKSMNSATHYAESVKGRFTISRDDSKNSLYLQMNSLKTEDTAVYYCARNYYGSTYDHWGQGTLVTVSS VL: EIVLTQSPDFQSVTPKEKVTITCRASQFVGYSIHWYQQKPDQSPKLLIKYASESRSGVPSRFSGSGSGTDFTLTINSLEAEDAATYYCQQSHSWHFTFGQGTKVEIK | ~0.025 nM
~0.0027 nM |  |  |  |  | A10K IgG (antibody, V domains shown) VH: EVQLVESGGGLVQPGGSLRLSCAASGFKFSNHWMNWVRQAPGKGLEWVGEIRSKSMNSATHYAESVKGRFTISRDDSKNSLYLQMNSLKTEDTAVYYCARNYYGSTYDHWGQGTLVTVSS VL: EIVLTQSPDFQSVTPKEKVTITCRASQFVGYSIHWYQQKPDQSPKLLIKYASESRSGVPSRFSGSGSGTDFTLTINSLEAEDAATYYCQQSHSWHFTFGQGTKVEIK | 
